From patent publication US8268585B2

B1: 25 kD endoglucanase (pI 4.1), C1-EG5, Family 45, Chrysosporium lucknowense (enzyme)
chain: QLSGSGQTTRYWDCCKPSCAWPGKGPSSPVQACDKNDNPLNDGGSTRSGCDAGGSAYMCSSQSPWAVSDELSYGWAAVKLAGSSESQWCCACYELTFTSGPVAGKKMIVQATNTGGDLGDNHFDLAIPGGGVGIFNACTDQYGAPPNGWGDRYGGIHSKEECESFPEALKPGCNWRFDWFQNADNPSVTFQEVACPSELTSKSGCSR
B2: 43 kD endoglucanase (pI 4.2), C1-EG6, Family 6, Chrysosporium lucknowense (enzyme)
chain: QASAGCASAVTLDASTNVFQQYTLHPNNFYRAEVEAAAEAISDSALAEKARKVADVGTFLWLDTIENIGRLEPALEDVPCENIVGLVIYDLPGRDCAAKASNGELKVGELDRYKTEYIDKIAEILKAHSNTAFALVIEPDSLPNLVTNSDLQTCQQSASGYREGVAYALKQLNLPNVVMYIDAGHGGWLGWDANLKPGAQELASVYKSAGSPSQVRGISTNVAGWNAWDQEPGEFSDASDAQYNKCQNEKIYINTFGAELKSAGMPNHAIIDTGRNGVTGLRDEWGDWCNVNGAGFGVRPTANTGDELADAFVWVKPGGESDGTSDSSAARYDSFCGKPDAFKPSPEAGTWNQAYFEMLLKNANPSF

Molecular target: Dyed casein

| Molecule | activity toward dyed casein, 50° C., arbitrary units/mg (arbitrary units/mg) |
| --- | --- |
| 55 kD cellobiohydrolase (pI 4.4), CBH1, Chrysosporium lucknowense (enzyme) | 0 |
| B1 | 0 |
| B2 | 0 |
